This is an account of results in publication doi:10.1101/2024.09.25.614941.

Like-named read-outs stand apart in the source and are kept apart here.

For one data set, the target named is T1, PfSir2A (UniProt Q8IE47).
T1 sequence: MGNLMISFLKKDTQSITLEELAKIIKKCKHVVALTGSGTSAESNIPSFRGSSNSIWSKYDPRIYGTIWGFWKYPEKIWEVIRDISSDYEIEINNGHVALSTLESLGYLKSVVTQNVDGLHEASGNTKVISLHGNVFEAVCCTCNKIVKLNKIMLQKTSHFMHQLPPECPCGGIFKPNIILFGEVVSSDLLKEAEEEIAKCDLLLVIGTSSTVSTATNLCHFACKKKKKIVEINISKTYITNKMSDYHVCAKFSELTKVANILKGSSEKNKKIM
Nature of the data set: EMSA.

The target in data set [1] is recombinant human 601-positioned nucleosome with histone H3 acetylated at lysine 9 (H3K9Ac dNuc) (human) (UniProt P68431). Nature of the data set: native gel or EMSA.

In the case of “601 nucleosome assembly sequence DNA, 147 bp”, the Kd in the data set with PfSir2A stood at 4000 nM. On to “H3K9Ac dNuc (human 601-positioned nucleosome)”, for which the Kd in the data set with PfSir2A (histone H3 K9 acetylated, no DNA modification stated) came out at 1400 nM.

B1: Plasmodium falciparum silent information regulator 2A (PfSir2A) (enzyme)
chain: MGNLMISFLKKDTQSITLEELAKIIKKCKHVVALTGSGTSAESNIPSFRGSSNSIWSKYDPRIYGTIWGFWKYPEKIWEVIRDISSDYEIEINNGHVALSTLESLGYLKSVVTQNVDGLHEASGNTKVISLHGNVFEAVCCTCNKIVKLNKIMLQKTSHFMHQLPPECPCGGIFKPNIILFGEVVSSDLLKEAEEEIAKCDLLLVIGTSSTVSTATNLCHFACKKKKKIVEINISKTYITNKMSDYHVCAKFSELTKVANILKGSSEKNKKIM
Turning to B1, the Kd in data set [1] worked out at 1400 nM.

As usually defined, the Kd is the free concentration of one partner at which half of the binding sites on the other are occupied at equilibrium, for simple one-to-one binding.
